From patent US12391751B2, “Antibody against advanced glycation end products and use thereof” (Bloom Technology Corporation, priority 2018, dated 2025)

B1: PB-1: mouse monoclonal antibody raised against A-peak-BSA; heavy-chain variable region SEQ ID NO 18, light-chain variable region SEQ ID NO 22 (antibody, listed as Mus musculus, V domains shown)
VH: EVRLQQSGPELVKPGTSVKISCKASGYSFTGYYMHWVKQSPVKSLEWIGRIIPYNGATSYNQNFKDKASLTVDKSSRTAYMDLHSLTSEDSAVYYCARSRYYGRAPYYFDYWGQGTTLTVSS
VL: DVVVTQTPLSLPVSLGDQASISCRSSQSIVHSNGNTYLEWYLQKPGQSPKLLIYKVSNRFSGVPDRISGSGSGTDFTLKISRVEAGDLGVYSCFQGSHVPFTFGSGTKLEIK
B2: SJ-5: mouse monoclonal antibody raised against GAL13-MSA; heavy-chain variable region SEQ ID NO 4, light-chain variable region SEQ ID NO 8 (antibody, listed as Mus musculus, V domains shown)
VH: EVMLVESGGRLVKPGGSLKLSCAASGFTFSSYGMSWVRQTPEKRLEWVATISGGGSYTYYPDSVKGRFTISRDNVKNNLYLQMSSLRSEDTALYYCARRGAYGDYGWFAYWGQGTLVTVSA
VL: DIVLTQSPATLSVTPGDSVSLSCRASQSINNNLHWYQQKSHESPRLLIKCASQSISGIPSRFSGSGSGTDFTLSINSVETEDFGMYFCQQSNSWPLTFGAGTKLELK

What was measured:
mouse retinal tissue = test: Retinal tissue staining of diabetic mouse and control mouse (Example 36); conditions: diabetic mice compared with control mice; antibody 1 mg/mL diluted 500-fold; Alexa 594 secondary
Description: A C57BL6/J mouse (CLEA Japan, Inc.) on 13 days of pregnancy was purchased, and child mice were obtained. For diabetic mice, streptozotocin (FUJIFILM Wako Pure Chemical Corp.) was dissolved at 5 mg/mL in saline (Otsuka Pharmaceutical Co., Ltd.) and subcutaneously administered at 300 μL to a male child mouse 2 days after birth. For control mice, saline was subcutaneously administered at 300 μL to a male child mouse 2 days after birth. After living together with the mother mouse for 4 weeks and subsequent weaning, the diabetic mice were raised with HFD32 (CLEA Japan, Inc.) for 8 weeks. The control mice were raised with CE-2 (CLEA Japan Inc.) for 8 weeks.
1.875 mL of Domitor (Nippon Zenyaku Kogyo Co., Ltd.), 2 mL of midazolam (Sandoz K.K.), 2.5 mL of Vetorphale (Meiji Seika Pharma Co., Ltd.), and 18.625 mL of saline were mixed to prepare a three drug-mixed anesthetic. The body weight of each mouse was measured with a scale (TANITA Corp.), and the three drug-mixed anesthetic was intraperitoneally administered at […]. […]
Acetone (FUJIFILM Wako Pure Chemical Corp.) was incubated for 16 hours or longer in a freezer (Fukushima Industries Corp.) set to −30° C. to prepare cold acetone. […] Then, the fluorescence of Alexa 594 in the retina was observed under a confocal laser microscope (Olympus Corp.).

Glycer-AGEs-BSA = Glycer-AGEs-BSA (Bos taurus, UniProt P02769); test: Dissociation constant measurement, Biacore T200 (Example 8); assay type: binding; conditions: Biacore T200, sensor chip CM5; ligand Glycer-AGEs-BSA; antibody 0 to 400 nM
Description: (§1) The dissociation constant (Kd value) of the monoclonal antibody SJ-5 was measured by the following approach: BSA containing AGEs derived from glyceraldehyde (Glycer-AGEs-BSA) was diluted with a 10 mM sodium acetate solution (pH 4.0) to prepare a ligand solution with a final concentration of 100 μg/mL. Biacore T200 (GE Healthcare Japan Corp.) was used for the immobilization of the ligand and the calculation of the KD value. The ligand solution was immobilized onto sensor chip CM5 (GE Healthcare Japan Corp.) using an amine coupling kit (GE Healthcare Japan Corp.). Subsequently, antibody dilution solutions containing the monoclonal antibody diluted into concentrations from 0 to 400 nM were prepared, and the Kd value was calculated.

GAL13-BSA = molecular target: T1, GAL13-BSA (Bos taurus, UniProt P02769); test: as above; assay type: binding; conditions: Biacore T200, sensor chip CM5; ligand GAL13-BSA
T1 construct: purchased Sigma-Aldrich Co. LLC
Description: as §1
BSA chemically bonded to the peak obtained in fractionation by HPLC (GAL13-BSA) was diluted with a 10 mM sodium acetate solution (pH 5.0) to prepare a ligand solution with a final concentration of 25 μg/mL.

Sequence of Glycer-AGEs-BSA (P02769 25-607): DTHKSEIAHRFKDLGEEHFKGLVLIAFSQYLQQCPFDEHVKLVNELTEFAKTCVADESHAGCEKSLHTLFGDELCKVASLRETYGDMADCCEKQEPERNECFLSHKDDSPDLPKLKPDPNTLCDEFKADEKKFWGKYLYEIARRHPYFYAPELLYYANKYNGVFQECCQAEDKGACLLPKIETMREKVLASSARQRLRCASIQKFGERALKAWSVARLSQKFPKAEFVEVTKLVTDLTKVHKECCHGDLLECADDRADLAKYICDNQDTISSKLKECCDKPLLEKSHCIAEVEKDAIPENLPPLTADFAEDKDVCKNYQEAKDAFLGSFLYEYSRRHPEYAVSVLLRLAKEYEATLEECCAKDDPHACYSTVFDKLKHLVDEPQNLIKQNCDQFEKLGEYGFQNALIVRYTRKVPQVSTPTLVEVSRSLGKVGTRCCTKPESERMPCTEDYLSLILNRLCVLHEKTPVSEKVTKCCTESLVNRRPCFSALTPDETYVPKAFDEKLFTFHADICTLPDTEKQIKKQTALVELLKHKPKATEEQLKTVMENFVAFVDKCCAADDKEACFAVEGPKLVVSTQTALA
T1 sequence (P02769 25-607): as above

Molecule	staining of retinal ganglion cell layer, internal and external granular layers, retinal pigment epithelial cell layer (mouse retinal tissue)	Kd (Glycer-AGEs-BSA)	Kd (GAL13-BSA)
B1	bind strongly		
B2		57.4 nM	87.5 nM
